# Data from US9605064B2, “Methods and compositions for treatment of skin disorders” (AbbVie Biotechnology Ltd, priority 2006, dated 2017).
# Marks after values point to notes of the source that are not given here.
# How the values were obtained:
# [1] = tested on: patients with moderate to severe plaque psoriasis; assay: EuroQOL 5D (EQ-5D), Phase II trial; format: in vivo, human; settings: Week 12
# Experimental: This study provided the opportunity to evaluate the validity and responsiveness to change in clinical status of PROs instruments. Patients completed the DLQI, SF-36, and EQ-5D questionnaires at baseline and at 12 weeks. Blinded investigators assessed the Psoriasis Area and Severity Index (PASI) scores and the Physician's Global Assessment (PGA) scores of enrolled patients. The responsiveness of the measures to changes in the clinical endpoints from baseline to Week 12 was assessed. Estimates of minimum important differences (MID) were derived. All analyses were performed with blinded data; findings and conclusions were not biased based on treatment condition.
# Three PROs measures were used in the study and are the subject of the analyses reported here. All PROs measures were assessed at baseline and at Week 12 (or early termination, if applicable).
# The EQ-5D [17,18] is a six-item, preference-based instrument designed to measure general health status. The EQ-5D has two sections: The first consists of five items to assess degree of physical functioning (mobility, self-care, usual activities, pain/discomfort, and anxiety/depression). […]
# The relationship between mean change in EQ-5D and clinical responses was evaluated from baseline to Week 12. […]
# [2] = tested on: patients with moderate to severe chronic plaque psoriasis; assay: PASI response, CHAMPION 16-week Phase III trial vs methotrexate and placebo; format: in vivo, human; settings: for PASI 75 Response Rates, % Patients / PASI 90 Response Rates, % Patients: missing PASI = non-responder
# Experimental: (§1) Analytical methods included the following: • Intention-to-treat analyses were performed for all randomized patients • Missing data were analyzed using non-responder imputation (NRI) • PASI 75 at Week 16 (primary endpoint) was analyzed using adjusted Cochran-Mantel-Haenszel test.
# [3] = tested on: patients with moderate to severe chronic plaque psoriasis; assay: PGA, CHAMPION 16-week Phase III trial; format: in vivo, human; settings: ITT, missing PGA = not achieving
# Experimental: as §1
# C-reactive protein (CRP) = assay: C-reactive protein concentrations, post-hoc analysis of REVEAL; format: in vivo, human; settings: for mean change from baseline in CRP: 16 wks
# Experimental: Changes in CRP concentrations were also evaluated in subgroups with or without self-reported psoriatic arthritis (PsA) and with or without obesity (by body mass index [BMI]).
# [4] = tested on: patients with moderate to severe chronic plaque psoriasis; settings: in vivo
# [5] = tested on: patients with moderate to severe psoriasis; assay: Adverse events, open-label extension of REVEAL
# Experimental: Laboratory parameters and adverse events were also recorded.
# [6] = tested on: patients with moderate to severe chronic plaque psoriasis; assay: Adverse events, CHAMPION 16-week Phase III trial; settings: 16-week study
# From the text: The study was a multi-center, 16-week, randomized controlled Phase III trial. The main inclusion criteria included: • Clinical diagnosis of psoriasis for ≧1 year • Affected body surface area (BSA)≧10% • Psoriasis Area and Severity Index (PASI)≧10 The main exclusion criteria was previous use of MTX or systemic anti-TNF therapy.
# [7] = tested on: patients with moderate to severe plaque psoriasis; assay: Adverse events and laboratory abnormalities, 12-week open-label weekly therapy then randomized eow or withdrawal
# [8] = MTX N = 110, Adalimumab N = 107
# [9] = Double-blind period Weeks 12-24, 40 mg eow (N = 68)
# [10] = Open-label period Weeks 0-11, 40 mg weekly (N = 148)
substance,measurement,setting,value
"Adalimumab: a human anti-TNF mAb, described in U.S. Pat. No. 6,090,382 as D2E7 (HUMIRA, Abbott Laboratories)","Mean Change in EQ-5D VAS, Change from Baseline",[1]; 40 mg eow,18
same,"Mean Change in EQ-5D VAS, Change from Baseline",[1]; 40 mg weekly,10.9
same,mean percentage PASI improvement,[2]; Week 4,57%
same,"PASI 75 Response Rates, % Patients","[2]; Week 4, ITT",23*† %
same,"PASI 90 Response Rates, % Patients","[2]; Week 4, ITT",7* %
same,"PASI 75 Response Rates, % Patients","[2]; Week 8, ITT",62‡ %
same,"PASI 90 Response Rates, % Patients","[2]; Week 8, ITT",27†‡ %
same,"PASI 75 Response Rates, % Patients","[2]; Week 12, ITT",77‡ %
same,"PASI 90 Response Rates, % Patients","[2]; Week 12, ITT",48†‡ %
same,PASI 75,"[2]; Week 16, ITT, NRI",80%
same,"PASI 75 Response Rates, % Patients","[2]; Week 16, ITT",80‡ %
same,"PASI 90 Response Rates, % Patients","[2]; Week 16, ITT",52†‡ %
same,"PASI 75 Response Rates, % Patients","[2]; Week 16, ITT, listed as ADA",79.6% * †
same,"PASI 90 Response Rates, % Patients","[2]; Week 16, ITT, listed as ADA",51.9% * †
same,PASI 50 response rate,"[2]; Week 16 of CHAMPION, ITT, NRI",88.0% * †
same,PASI 100 response rate,"[2]; Week 16 of CHAMPION, ITT, NRI",16.7% ‡ §
same,"PGA “Clear” or “Minimal” Responses, % Patients",[3]; Week 4,7*† %
same,"PGA “Clear” or “Minimal” Responses, % Patients",[3]; Week 8,27‡§ %
same,"PGA “Clear” or “Minimal” Responses, % Patients",[3]; Week 12,48‡§ %
same,"PGA “Clear” or “Minimal” Responses, % Patients",[3]; Week 16,52‡§ %
same,mean change from baseline in CRP,C-reactive protein (CRP); Ps group (without self-reported PsA),−1.3
same,patients with elevated CRP at baseline who had a normal CRP,"C-reactive protein (CRP); Ps group, Wk 16",64.6%
same,mean change from baseline in CRP,C-reactive protein (CRP); PsA group,−6.3
same,patients with elevated CRP at baseline who had a normal CRP,"C-reactive protein (CRP); PsA group, Week 16",71.9%
same,patients changed from elevated CRP at baseline to a normal CRP,"C-reactive protein (CRP); obese patients, Week 16",64.1%
same,serious infections,[4],no patients experienced serious infections
same,"AEs leading to withdrawal, Patients (%)",[5]; First 24 weeks of OLE,1%
same,"Any AE, Patients (%)",[5]; First 24 weeks of OLE,47%
same,"Lymphoma, Patients (%)",[5]; First 24 weeks of OLE,0%
same,"Malignancy, Patients (%)",[5]; First 24 weeks of OLE,1%
same,"Non-melanoma skin cancer, Patients (%)",[5]; First 24 weeks of OLE,0%
same,"Serious AE, Patients (%)",[5]; First 24 weeks of OLE,3%
same,"Nasopharyngitis, Patients (%)","[5]; First 24 weeks of OLE, AEs occurring ≧5% of patients",5%
same,patients with serious adverse events,[5]; between Months 12-18,2.6%
same,Any AE,[6]; [8],79 (74) n (%)
same,Any AE leading to discontinuation,[6]; [8],1 (1) n (%)
same,Any SAE,[6]; [8],2 (2) n (%)
same,Arthralgia,[6]; common AE in ≧5% of patients,6 (6) n (%)
same,Gamma-Glutamyltransferase Increased,[6]; common AE in ≧5% of patients,2 (2) n (%)
same,Headache,[6]; common AE in ≧5% of patients,14 (13) n (%)
same,Nasopharyngitis,[6]; common AE in ≧5% of patients,30 (28) n (%)
same,Nausea,[6]; common AE in ≧5% of patients,4 (4) n (%)
same,Pruritus,[6]; common AE in ≧5% of patients,4 (4) n (%)
same,Rhinitis,[6]; common AE in ≧5% of patients,3 (3) n (%)
same,Rhinorrhea,[6]; common AE in ≧5% of patients,3 (3) n (%)
same,Viral Infection,[6]; common AE in ≧5% of patients,0 (0) n (%)
same,patients with serious adverse events,[7]; 24-week trial,Four patients
same,"tuberculosis or other opportunistic infections, lymphoma, melanoma, other malignancies, demyelinating disorders, lupus-like syndromes, congestive heart failure",[7]; 24-week trial,No patients developed
same,Any AE,[7]; [9],46 (67.6) n (%)
same,Any AEs leading to discontinuation,[7]; [9],2 (2.9) n (%)
same,Any SAE,[7]; [9],2 (2.9) n (%)
same,Arthralgia,[7]; [9],5 (7.4) n (%)
same,Headache,[7]; [9],1 (1.5) n (%)
same,Injection site reaction,[7]; [9],4 (5.9) n (%)
same,Nasopharyngitis,[7]; [9],3 (4.4) n (%)
same,Any AE,[7]; [10],105 (70.9) n (%)
same,Any AEs leading to discontinuation,[7]; [10],1 (0.7) n (%)
same,Any SAE,[7]; [10],2 (1.4) n (%)
same,Arthralgia,[7]; [10],4 (2.7) n (%)
same,Headache,[7]; [10],11 (7.4) n (%)
same,Injection site reaction,[7]; [10],17 (11.5) n (%)
same,Nasopharyngitis,[7]; [10],11 (7.4) n (%)
same,ALT elevation greater than 2.5 times the upper limit of normal,[7]; Week 12,No patients
same,ALT elevation greater than 2.5 times the upper limit of normal,"[7]; adalimumab eow group, Week 24",One patient
same,arthralgias,"[7]; adalimumab eow group, Weeks 12-24",7.4%
same,patients who withdrew because of an adverse event,[7]; of the 148 patients who received at least one dose,three
same,rebound (pre-specified definition),[7]; three patients classified by investigators as rebounders,None of the three patients met the study's pre-specified definition of rebound
